{"source": "patent US20170224620A1", "about": "(Pfizer, published 2017)", "note": "Bridges are numbered along the chain shown (N, C = ends). Where no end group is shown, it is not given here. [ ]: non-standard residue; d: D form. Phe(F5) = N[C@@H](Cc1c(F)c(F)c(F)c(F)c1F)C(=O)O; Phe(4-NH2) = Nc1ccc(C[C@H](N)C(=O)O)cc1; Bta = N[C@@H](Cc1csc2ccccc12)C(=O)O; 3Pal = N[C@@H](Cc1cccnc1)C(=O)O; 2Thi = N[C@@H](Cc1cccs1)C(=O)O; hCys = N[C@@H](CCS)C(=O)O; F(pg) = not defined here; Pra = C#CC[C@H](N)C(=O)O", "data": [{"target": "T1, Fc tagged recombinant human EGFR (rhEGFR-Fc, R&D systems, Cat#344-ER-050) (human, UniProt P00533 25-645)", "T1 construct": "Bought protein; also called apo-EGFR; not shown: Fc tag", "experiment": "SPR", "method": "Surface plasmon resonance (SPR) binding studies were carried out on a Biacore T200 instrument (GE Healthcare). […] The contact time and resulting amount of rhEGFR-Fc capture was varied based on the nature of the analyte, namely whether it was a peptide or nanoparticle.\nPeptide binding assays were carried out in 10 mM PBS buffer supplemented with 0.05% surfactant P20 and 5% DMSO by volume, at 25° C. Peptides were injected over the rhEGFR-Fc surface for 60 s, followed by dissociation (buffer injection) for 60 s and regeneration with a 10 s pulse of 3M MgCl₂. A fresh rhEGFR-Fc surface was generated for each concentration of each peptide tested. Peptide binding data was analyzed by fitting to a 1:1 Langmuir kinetic model to obtain the on-rate (kₐ), off-rate (kd) and/or equilibrium binding constant (KD) of the interaction.", "units": {"Result (affinity relative to KD of P2)": "ratio", "KD Relative to P2": "ratio", "KD/P2 KD": "ratio"}, "values": [{"binder": "H-DP[hCys]TWEVWGRECLQGG[Pra]G-NH2 (disulfide 3-12; SMILES C#CC[C@H](NC(=O)CNC(=O)CNC(=O)[C@H](CCC(N)=O)NC(=O)[C@H](CC(C)C)NC(=O)[C@@H]1CSSCC[C@H](NC(=O)[C@@H]2CCCN2C(=O)[C@@H](N)CC(=O)O)C(=O)N[C@@H]([C@@H](C)O)C(=O)N[C@@H](Cc2c[nH]c3ccccc23)C(=O)N[C@@H](CCC(=O)O)C(=O)N[C@@H](C(C)C)C(=O)N[C@@H](Cc2c[nH]c3ccccc23)C(=O)NCC(=O)N[C@@H](CCCNC(=N)N)C(=O)N[C@@H](CCC(=O)O)C(=O)N1)C(=O)NCC(N)=O)", "note": "[P2-51]", "Result (affinity relative to KD of P2)": 8.88}, {"binder": "DPCTWEV[Bta]GRECLQ (disulfide 3-12; not fully specified (N-terminus), P2 backbone; also called P2 with 3-Benzothienyl Alanine at W8)", "note": "[P2-91]", "KD Relative to P2": 124}, {"binder": "H-DP[hCys]TWEVWGRE[hCys]LQGG[Pra]G-NH2 (disulfide 3-12; SMILES C#CC[C@H](NC(=O)CNC(=O)CNC(=O)[C@H](CCC(N)=O)NC(=O)[C@H](CC(C)C)NC(=O)[C@@H]1CCSSCC[C@H](NC(=O)[C@@H]2CCCN2C(=O)[C@@H](N)CC(=O)O)C(=O)N[C@@H]([C@@H](C)O)C(=O)N[C@@H](Cc2c[nH]c3ccccc23)C(=O)N[C@@H](CCC(=O)O)C(=O)N[C@@H](C(C)C)C(=O)N[C@@H](Cc2c[nH]c3ccccc23)C(=O)NCC(=O)N[C@@H](CCCNC(=N)N)C(=O)N[C@@H](CCC(=O)O)C(=O)N1)C(=O)NCC(N)=O)", "note": "[P2-52]", "Result (affinity relative to KD of P2)": 14}, {"binder": "H-DPCTWETWGRECLQGG[Pra]G-NH2 (disulfide 3-12; SMILES C#CC[C@H](NC(=O)CNC(=O)CNC(=O)[C@H](CCC(N)=O)NC(=O)[C@H](CC(C)C)NC(=O)[C@@H]1CSSC[C@H](NC(=O)[C@@H]2CCCN2C(=O)[C@@H](N)CC(=O)O)C(=O)N[C@@H]([C@@H](C)O)C(=O)N[C@@H](Cc2c[nH]c3ccccc23)C(=O)N[C@@H](CCC(=O)O)C(=O)N[C@@H]([C@@H](C)O)C(=O)N[C@@H](Cc2c[nH]c3ccccc23)C(=O)NCC(=O)N[C@@H](CCCNC(=N)N)C(=O)N[C@@H](CCC(=O)O)C(=O)N1)C(=O)NCC(N)=O)", "note": "[P2-38]", "KD/P2 KD": 12.3}, {"binder": "H-DPCTWEVWGRDCLQGG[Pra]G-NH2 (disulfide 3-12; SMILES C#CC[C@H](NC(=O)CNC(=O)CNC(=O)[C@H](CCC(N)=O)NC(=O)[C@H](CC(C)C)NC(=O)[C@@H]1CSSC[C@H](NC(=O)[C@@H]2CCCN2C(=O)[C@@H](N)CC(=O)O)C(=O)N[C@@H]([C@@H](C)O)C(=O)N[C@@H](Cc2c[nH]c3ccccc23)C(=O)N[C@@H](CCC(=O)O)C(=O)N[C@@H](C(C)C)C(=O)N[C@@H](Cc2c[nH]c3ccccc23)C(=O)NCC(=O)N[C@@H](CCCNC(=N)N)C(=O)N[C@@H](CC(=O)O)C(=O)N1)C(=O)NCC(N)=O)", "note": "[P2-49]", "KD/P2 KD": 3.39}, {"binder": "H-DPCTWEVWGKECLQGG[Pra]G-NH2 (disulfide 3-12)", "note": "[P2-46]", "KD/P2 KD": 13.9}, {"binder": "H-DPCTWEVWGAECLQGG[Pra]G-NH2 (disulfide 3-12)", "note": "[P2-45]", "binding result": "binds"}, {"binder": "H-DPCTWEVFGRECLQGG[Pra]G-NH2 (disulfide 3-12; SMILES C#CC[C@H](NC(=O)CNC(=O)CNC(=O)[C@H](CCC(N)=O)NC(=O)[C@H](CC(C)C)NC(=O)[C@@H]1CSSC[C@H](NC(=O)[C@@H]2CCCN2C(=O)[C@@H](N)CC(=O)O)C(=O)N[C@@H]([C@@H](C)O)C(=O)N[C@@H](Cc2c[nH]c3ccccc23)C(=O)N[C@@H](CCC(=O)O)C(=O)N[C@@H](C(C)C)C(=O)N[C@@H](Cc2ccccc2)C(=O)NCC(=O)N[C@@H](CCCNC(=N)N)C(=O)N[C@@H](CCC(=O)O)C(=O)N1)C(=O)NCC(N)=O)", "note": "[P2-40]", "binding result": "binds"}, {"binder": "H-DPCTWEVAGRECLQGG[Pra]G-NH2 (disulfide 3-12; SMILES C#CC[C@H](NC(=O)CNC(=O)CNC(=O)[C@H](CCC(N)=O)NC(=O)[C@H](CC(C)C)NC(=O)[C@@H]1CSSC[C@H](NC(=O)[C@@H]2CCCN2C(=O)[C@@H](N)CC(=O)O)C(=O)N[C@@H]([C@@H](C)O)C(=O)N[C@@H](Cc2c[nH]c3ccccc23)C(=O)N[C@@H](CCC(=O)O)C(=O)N[C@@H](C(C)C)C(=O)N[C@@H](C)C(=O)NCC(=O)N[C@@H](CCCNC(=N)N)C(=O)N[C@@H](CCC(=O)O)C(=O)N1)C(=O)NCC(N)=O)", "note": "[P2-39]", "binding result": "no binding"}, {"binder": "H-DPCTWEVWG[F(pg)]ECLQGG[Pra]G-NH2 (disulfide 3-12; reading uncertain)", "note": "[P2-47]", "KD/P2 KD": 37.1}, {"binder": "DPCT[Phe(F5)]EVWGRECLQ (disulfide 3-12; not fully specified (N-terminus), P2 backbone; also called P2 with Pentafluoro Phenylalanine at W5)", "note": "[P2-88]", "KD Relative to P2": 8.5}, {"binder": "DPXTWEVWGREXLQGGGG (free N-terminus; Pen at 3 and 12, disulfide; Par at 17; C-terminal amide, also called PenPen analog)", "note": "[P2-55 (free-ligand series, GG-Par-G tail)]", "Result (affinity relative to KD of P2)": 1.18}, {"binder": "DPCT[2Thi]EVWGRECLQ (disulfide 3-12; not fully specified (N-terminus), P2 backbone; also called P2 with 2-Thienyl Alanine at W5)", "note": "[P2-92]", "KD Relative to P2": 15.9}, {"binder": "DPXTWEVWGRECLQGGGG (free N-terminus; Pen at 3, disulfide with Cys12; Par at 17; C-terminal amide)", "note": "[P2-54]", "Result (affinity relative to KD of P2)": 4.78}, {"binder": "H-GGDPETWEVWGREKLQGG[Pra]G-NH2 (lactam 5-14)", "note": "[P2-67]", "binding result": "binds"}, {"binder": "DPCT[3Pal]EVWGRECLQ (disulfide 3-12; not fully specified (N-terminus), P2 backbone; also called P2 with 3-Pyridyl Alanine at W5)", "note": "[P2-74]", "KD Relative to P2": 11.8}, {"binder": "DPATWEVWGRECLQ-{propargyl glycine moiety (p-0168)} (not fully specified (N-terminus), also called P2 Ala scan, AA position 3)", "note": "[P2-3]", "binding result": "no binding"}, {"binder": "H-DPCTW[Pra]VWGRECLQ-NH2 (disulfide 3-12; SMILES C#CC[C@@H]1NC(=O)[C@H](Cc2c[nH]c3ccccc23)NC(=O)[C@H]([C@@H](C)O)NC(=O)[C@@H](NC(=O)[C@@H]2CCCN2C(=O)[C@@H](N)CC(=O)O)CSSC[C@@H](C(=O)N[C@@H](CC(C)C)C(=O)N[C@@H](CCC(N)=O)C(N)=O)NC(=O)[C@H](CCC(=O)O)NC(=O)[C@H](CCCNC(=N)N)NC(=O)CNC(=O)[C@H](Cc2c[nH]c3ccccc23)NC(=O)[C@H](C(C)C)NC1=O)", "note": "[P2-31]", "KD/P2 KD": 0.86}, {"binder": "DPCTFEVWGRECLQ (disulfide 3-12; not fully specified (N-terminus, C-terminus), P2 backbone; also called P2 with Phenylalanine at W5)", "note": "[P2-70]", "KD Relative to P2": 9.24}, {"binder": "H-DPC[Pra]WEVWGRECLQ-NH2 (disulfide 3-12; SMILES C#CC[C@@H]1NC(=O)[C@@H](NC(=O)[C@@H]2CCCN2C(=O)[C@@H](N)CC(=O)O)CSSC[C@@H](C(=O)N[C@@H](CC(C)C)C(=O)N[C@@H](CCC(N)=O)C(N)=O)NC(=O)[C@H](CCC(=O)O)NC(=O)[C@H](CCCNC(=N)N)NC(=O)CNC(=O)[C@H](Cc2c[nH]c3ccccc23)NC(=O)[C@H](C(C)C)NC(=O)[C@H](CCC(=O)O)NC(=O)[C@H](Cc2c[nH]c3ccccc23)NC1=O)", "note": "[P2-27]", "KD/P2 KD": 5.4}, {"binder": "Ac-DPCTWEVWGREALQ (also: C-terminal propargylglycine moiety, not placed, also called P2 Ala scan, AA position 12)", "note": "[P2-12]", "binding result": "no binding"}, {"binder": "H-DPCTWE[Pra]WGRECLQ-NH2 (disulfide 3-12; SMILES C#CC[C@@H]1NC(=O)[C@H](CCC(=O)O)NC(=O)[C@H](Cc2c[nH]c3ccccc23)NC(=O)[C@H]([C@@H](C)O)NC(=O)[C@@H](NC(=O)[C@@H]2CCCN2C(=O)[C@@H](N)CC(=O)O)CSSC[C@@H](C(=O)N[C@@H](CC(C)C)C(=O)N[C@@H](CCC(N)=O)C(N)=O)NC(=O)[C@H](CCC(=O)O)NC(=O)[C@H](CCCNC(=N)N)NC(=O)CNC(=O)[C@H](Cc2c[nH]c3ccccc23)NC1=O)", "note": "[P2-35]", "KD/P2 KD": 5.69}, {"binder": "DPCTWEVAGRECLQ (disulfide 3-12; not fully specified (N-terminus, C-terminus); also: C-terminal propargylglycine moiety, also called P2 Ala scan, AA position 8)", "note": "[P2-8]", "binding result": "no binding"}, {"binder": "DPCT[Phe(4-NH2)]EVWGRECLQ (disulfide 3-12; not fully specified (N-terminus), P2 backbone; also called P2 with 4-Amino Phenylalanine at W5)", "note": "[P2-86]", "KD Relative to P2": 9}, {"binder": "DPCTXEVWGRECLQ (not fully specified; 3-Benzothienyl Alanine at 5; Cys3-Cys12 disulfide, P2 backbone; also called P2 with 3-Benzothienyl Alanine at W5)", "note": "[P2-90]", "KD Relative to P2": 1.6}, {"binder": "DPCTWEVWGREXLQGGGG (free N-terminus; penicillamine (Pen) at 12, disulfide with Cys3; Par at 17; C-terminal amide)", "note": "[P2-53]", "Result (affinity relative to KD of P2)": 2.64}]}]}
